Measurements taken from patent publication US10059956B2, “Glycosyltransferase gene and use thereof” (SUNTORY HOLDINGS LIMITED, priority 2012, dated 2018).

Assays:
[1] = Enzyme activity of crude enzyme liquid of E. coli expressing NmGT0 to NmGT9 on apigenin (HPLC); assay type: biochemical, Nemophila menziesii; conditions: 80 μl crude enzyme liquid, UDP-glucose, 1 hour at 30° C., HPLC 330 nm
Procedure: 3 μg aliquots of each of pTOPO-NmGT0 to pTOPO-NmGT9 were treated with their corresponding restrictases followed by recovery of the resulting approximately 1.5 kb DNA fragments. 2 μg of vector pET15b was also treated with restrictase and ligated with the resulting DNA fragments to prepare E. coli expression constructs (pET-NmGT0 to pET-NmGT9).
pET-NmGT0 to pET-NmGT9 were introduced into E. coli strain […] using One Shot BL21 (DE3) (Invitrogen Corp.) in accordance with the protocol recommended by the manufacturer to acquire transformed E. coli. This E. coli was then cultured using the Overnight Express Autoinduction System 1 (Novagen Inc.) in accordance with the protocol recommended by the manufacturer. The transformed E. coli were cultured at 37° C. to an OD600 value of 0.5 in 2 ml of the prepared culture liquid (approx. 4 hours). This E. coli culture liquid was then used as a pre-culture liquid and added to 50 ml of culture liquid followed by final culturing overnight at 27° C. […]
A reaction liquid prepared by mixing 80 μl of crude enzyme liquid, 20 μl of 5 mM UDP-glucose, 20 μl of 1 M Tris HCl (pH 7.5) and 1 μl of 500 ng/μl apigenin on ice and bringing to a volume of 200 μl with water was held for 1 hour at 30° C. […] The Shimadzu PDA SPD-M10AVP was used for the detector and flavone was detected at 330 nm. […]

[2] = tested on: petunia (Surfinia Bouquet Red); experiment: Flower petal pigment analysis of recombinant petunia introduced with NmGT8; assay type: in vivo
From the text: Binary vectors pSPB5424 and pSBP5428 for expressing NmGT8 were constructed and introduced into petunia (Surfinia Bouquet Red). […] Details of the introduced constructs are described below (see FIG. 17). pBINPLUS was used for the basic skeleton of pSPB5424, and three expression cassettes were contained therein (consisting of 1: E[…] promoter, full-length cDNA pansy F3'5'H (described in PCT/JP2004/011958, SEQ ID NO: 3) and HSP terminator (Plant Cell Physiology (2010), 51, 328-332); 2: E[…] promoter, full-length cDNA torenia flavone synthase and HSP terminator; and 3: E[…] promoter, full-length cDNA NmGT8 and HSP terminator). pBINPLUS was also used for the basic skeleton of pSPB5428, and two expression cassettes were contained therein (consisting of 1: E[…] promoter, full-length cDNA torenia flavone synthase and HSP terminator; and 2: E[…] promoter, full-length cDNA NmGT8 and HSP terminator). Pigments in the flower petals were analyzed for full-length cDNA torenia flavone synthase and full-length cDNA NmGT8 in those stains in which transcription products were confirmed. 0.2 g of completely open flower petals were freeze-dried for 24 hours or more and finely crushed with a spatula, followed by the addition of 4 ml of extract buffer (composition: 50% aqueous acetonitrile solution containing 0.1% TFA) and subjecting to ultrasonic treatment for 20 minutes. The flower petal extract was analyzed by high-performance liquid chromatography (Prominence (Shimadzu Corp.)). Analyses were carried out under the conditions and in the same manner as in Example 5. Non-recombinant petunia not introduced with genes and recombinant petunia introduced only with torenia flavone synthase that biosynthesizes flavone were analyzed in the same manner as controls (FIG. 18). Moreover, flower petal extract diluted 50-fold was also analyzed with a high-performance liquid chromatograph (Shimadzu Corp.). The Shimadzu LCMS-IF-TOF was used for the detector and flavones were detected at 433.1057 ([Api-Glc+H]) and 449.1084 ([Lut-Glc+H]). The Inertsil ODS-4 (250×4.6 mm, 5 Shimadzu Corp.) was used for the column. […]

[3] = recombinant petunia flower petal extract, LC-MS

B1: NmGT8: nemophila glycosyltransferase (SEQ ID NO: 1/2) having activity that transfers a sugar to the hydroxyl group at the 4′-position of a flavone (protein, listed as Nemophila menziesii)
chain: MEKKTIILYPSPGIGHLVSMVELAKLILNREPSYSIIIFISSAPYSTGSSAPYISHVSATTSGISFHHLPVLVLPPNTFSSFEEIAYKIPQLNNPNLKLALQTISKESSDLKAFIIDFFCTAAVEVSSNLEIPTYFFFTSGSSAMCQFLYLPTLHETITQKDLQDPNTYVHIPGIPPIHSLDLPKVLSNRSTVLYKELINTANQMAKCSGILINAFETLEPKAVKALKEGLCTPGMPTPPVYCIGPLIASGDKGNVNDAHGHEILTWLNSQPSKSVVFLCFGSLGTFKEDQLKEIAIGLENSGHRFLWVMKSPPIDDKTKRFLPPPEPDFNVLLPEGFLERTKERGVIVKSWAPQLAILNHDAIGGFVTHCGWNSVLEAICGGVPMLAWPLYAEQRVNRVCMVEEMKVALPLEESVDGFVMASEIEKRVKELVDYESSEAIRDQVKIMSEKAKTAVAVSGSSHDALTKLLDGWK
- HPLC peak other than substrate [1]: a peak other than that of the substrate was observed
- flavone 4′-glucoside share of the biosynthesized flavones [2, 3]: 95.6%
- flavone 7-glucoside share of the biosynthesized flavones [2, 3]: 4.4%
- flavones detected in flower petals ([2]; recombinant petunia introduced with flavone synthase and NmGT8, HPLC): apigenin 4′-glucoside and luteolin 4′-glucoside were detected
